Experimental data as given in IntAct's records for PubMed 31254514.

B1: Beta-crystallin A4 (Homo sapiens), P53673 (parent)
chain: MTLQCTKSAGPWKMVVWDEDGFQGRRHEFTAECPSVLELGFETVRSLKVLSGAWVGFEHAGFQGQQYILERGEYPSWDAWGGNTAYPAERLTSFRPAACANHRDSRLTIFEQENFLGKKGELSDDYPSLQAMGWEGNEVGSFHVHSGAWVCSQFPGYRGFQYVLECDHHSGDYKHFREWGSHAPTFQVQSIRRIQQ
partner: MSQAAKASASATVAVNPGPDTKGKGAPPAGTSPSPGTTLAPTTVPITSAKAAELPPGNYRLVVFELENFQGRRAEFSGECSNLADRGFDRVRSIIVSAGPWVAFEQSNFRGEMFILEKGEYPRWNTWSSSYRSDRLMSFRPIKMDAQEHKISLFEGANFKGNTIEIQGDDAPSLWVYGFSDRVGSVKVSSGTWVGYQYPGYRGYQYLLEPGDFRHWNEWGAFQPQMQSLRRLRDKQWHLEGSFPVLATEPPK
B2: Beta-crystallin A4 (Homo sapiens), P53673 (parent)
chain: B1 chain
partner: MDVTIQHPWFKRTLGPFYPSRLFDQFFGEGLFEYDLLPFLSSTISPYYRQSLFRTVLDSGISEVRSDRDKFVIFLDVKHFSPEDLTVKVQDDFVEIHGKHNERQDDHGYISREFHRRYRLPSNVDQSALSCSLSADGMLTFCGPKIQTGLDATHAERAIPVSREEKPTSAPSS

Variants of: B1
Settings: with crbb1_human CRYBB1, P53674

Row | Variant | effect of a mutation on the interaction
1 | G64W | disrupting interaction strength

Variants of: B2
Settings: with cryaa_human CRYAA

Row | Variant | effect of a mutation on the interaction
2 | G64W | increasing interaction strength
